Experimental data taken from patent US20260265321A1, “PEPTIDE AND POLYPEPTIDE INHIBITING THE NF-KB SIGNALING PATHWAY” (Centre National de la Recherche Scientifique, priority 2023, published 2026).
Residues, ends and D or L forms follow the SMILES beside them.

Legend:
[1] = target: T1, IKKα(10-667) EE homodimer (Homo sapiens, UniProt O15111, S176E/S180E); assay: Isothermal titration calorimetry (ITC) of peptide binding to IKKα homodimer; details: 25° C.; for N (binding stoichiometry of IKKα: pep): 1:1 binding model; for TΔS / ΔG / ΔH: IKKα
T1 construct: an equivalent construct of the IKKα homodimer (i.e. IKKα(10-667) S176E/S180E, named IKKα(10-667) EE hereafter); 6×His (followed by TEV site) (N, cleaved yes); made in house; host or cells: Sf21 insect cells (baculovirus)
T1 sequence (O15111 10-667 S176E/S180E): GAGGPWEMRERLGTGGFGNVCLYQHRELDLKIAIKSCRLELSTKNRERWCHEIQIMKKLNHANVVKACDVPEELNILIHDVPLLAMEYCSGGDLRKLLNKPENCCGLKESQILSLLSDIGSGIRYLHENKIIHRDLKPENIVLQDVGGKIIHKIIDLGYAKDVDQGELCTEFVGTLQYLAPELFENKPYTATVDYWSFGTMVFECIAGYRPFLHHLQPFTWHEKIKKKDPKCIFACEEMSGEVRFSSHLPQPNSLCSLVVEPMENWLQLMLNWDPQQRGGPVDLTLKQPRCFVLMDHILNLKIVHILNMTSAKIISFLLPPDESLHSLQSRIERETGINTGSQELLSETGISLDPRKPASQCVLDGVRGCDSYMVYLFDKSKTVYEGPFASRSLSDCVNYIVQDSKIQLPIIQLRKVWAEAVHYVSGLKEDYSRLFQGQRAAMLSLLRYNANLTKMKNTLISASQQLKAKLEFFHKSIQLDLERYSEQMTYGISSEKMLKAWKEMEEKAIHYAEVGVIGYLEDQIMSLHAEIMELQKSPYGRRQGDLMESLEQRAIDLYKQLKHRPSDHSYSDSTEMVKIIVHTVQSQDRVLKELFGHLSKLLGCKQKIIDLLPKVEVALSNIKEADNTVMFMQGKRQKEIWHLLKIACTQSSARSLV
Method: All experiments were performed in ITC buffer (20 mM HEPES pH 8.0, 150 mM NaCl, 1 mM TCEP) unless otherwise stated. Purified IKKα(10-667) EE and IKKβ(1-669) EE protein samples were dialyzed overnight against ITC buffer at 4° C. Just before the ITC experiments, IKKα or IKKβ samples were concentrated, incubated at room temperature for 30 minutes and centrifuged at 11000 g to remove eventual precipitate. The final concentrations of IKKα and IKKβ in the sample cell varied between 22 and 50 μM depending on the measurement. HPLC purified synthetic peptides (IκBα pep) comprising residues 297-317 of IκBα were further desalted using a Nap5 (GE Healthcare, #17-0853-01) column equilibrated in milliQ water, lyophilized and then resuspended in ITC buffer. The concentration of peptides in the syringe varied between 220 and 975 μM depending on the measurement.
All ITC measurements were performed using a PEAQ-ITC MALVERN instrument. The titration parameters were set as following: temperature 25° C., reference power 10 μcal/s, feedback=high, stirring speed 750 RPM, initial delay 60 s, first injection 0.4 μl in 0.8 s and the remaining 19 injections were 2 μL in 4 s with 120 s of spacing. The data were fitted to a 1:1 binding model. All data were processed using NITPIC software and global fitting of two datasets was carried out using SEDPHAD.
To evaluate binding affinities, isothermal titration calorimetry (ITC) experiments were performed using a synthetic peptide that comprises the YDDφXφ motif plus the N-terminal acidic patch (residues 297-317, named IκBα pep hereafter) and purified IKKβ(1-669) EE homodimer or an equivalent construct of the IKKα homodimer (i.e. IKKα(10-667) S176E/S180E, named IKKα(10-667) EE hereafter). […] ITC analyses on the IKKα/β heterodimer were prevented by strong aggregation propensity at the concentrations required for these experiments.
All ITC experiments were performed at 25° C. The data were fitted to a 1:1 binding model. N refers to the binding stoichiometry of IKKα/β: pep, meaning that approximately half of total IKKα/β concentration binds pep ligand in agreement with the dimer form of IKKα/β being binding competent. The values for the IKKα interaction with IRF7 pep should be regarded as estimates due to low affinity and weakly exothermic binding, and therefore high experimental error and fitting uncertainty. All data were processed using NITPIC software and global fitting of two datasets was carried out using SEDPHAD.

[2] = target: T2, IKKβ(1-669) S177E/S181E homodimer, 6×His tag removed (human, UniProt O14920 1-669); assay: ITC, 25 °C, synthetic peptide into IKK homodimer, 1:1 model
T2 sequence (looked up): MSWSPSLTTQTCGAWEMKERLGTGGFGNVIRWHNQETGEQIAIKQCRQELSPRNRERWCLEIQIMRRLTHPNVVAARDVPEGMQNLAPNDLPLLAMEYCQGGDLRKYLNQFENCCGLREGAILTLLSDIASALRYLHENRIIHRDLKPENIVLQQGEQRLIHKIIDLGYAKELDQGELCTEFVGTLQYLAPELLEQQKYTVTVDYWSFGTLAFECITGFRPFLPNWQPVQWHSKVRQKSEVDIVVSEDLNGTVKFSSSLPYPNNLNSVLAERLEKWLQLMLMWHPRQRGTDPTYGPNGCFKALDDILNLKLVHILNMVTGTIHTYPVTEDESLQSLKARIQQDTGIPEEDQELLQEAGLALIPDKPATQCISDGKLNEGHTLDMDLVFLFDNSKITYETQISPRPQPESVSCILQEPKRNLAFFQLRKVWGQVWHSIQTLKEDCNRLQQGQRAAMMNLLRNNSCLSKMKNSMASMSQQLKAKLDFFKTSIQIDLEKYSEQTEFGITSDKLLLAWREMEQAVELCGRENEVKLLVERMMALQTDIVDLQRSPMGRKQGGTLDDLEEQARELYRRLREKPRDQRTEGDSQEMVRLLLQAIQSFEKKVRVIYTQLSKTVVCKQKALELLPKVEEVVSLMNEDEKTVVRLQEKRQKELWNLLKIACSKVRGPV
Method: (§1) All experiments were performed in ITC buffer (20 mM HEPES pH 8.0, 150 mM NaCl, 1 mM TCEP) unless otherwise stated. […] Just before the ITC experiments, IKKα or IKKβ samples were concentrated, incubated at room temperature for 30 minutes and centrifuged at 11000 g to remove eventual precipitate. The final concentrations of IKKα and IKKβ in the sample cell varied between 22 and 50 μM depending on the measurement. […] The concentration of peptides in the syringe varied between 220 and 975 μM depending on the measurement.
(§2) All ITC experiments were performed at 25° C. The data were fitted to a 1:1 binding model. […] All data were processed using NITPIC software and global fitting of two datasets was carried out using SEDPHAD.

[3] = target: T3, IKKα(10-667) S176E/S180E homodimer, 6×His tag removed (human, UniProt O15111 10-667); assay: as above
T3 construct: also called purified IKKα
T3 sequence (looked up): T1 sequence (O15111 10-667 S176E/S180E)
Method: as §1, §2

In the case of `CC[C@H](C)[C@H](NC(=O)CNC(=O)[C@H](CC(=O)O)NC(=O)[C@H](CC(C)C)NC(=O)CN)C(=O)N[C@H](C(=O)N[C@@H](CCC(=O)O)C(=O)N[C@@H](Cc1ccc(O)cc1)C(=O)N[C@@H](CC(=O)O)C(=O)N[C@@H](CC(=O)O)C(=O)N[C@@H](Cc1ccccc1)C(=O)N[C@@H](CCCCN)C(=O)N[C@@H](CC(C)C)C(=O)N[C@@H](CC(N)=O)C(=O)N[C@@H](CO)C(=O)N[C@@H](CO)C(=O)N[C@H](C(=O)N[C@H](C(=O)N[C@@H](CCC(=O)O)C(=O)N1CCC[C@H]1C(=O)N[C@@H](CCCCN)C(=O)N[C@@H](CCC(=O)O)C(=O)O)C(C)C)[C@@H](C)CC)[C@@H](C)CC` [p100 pep] (H-GLDGIIEYDDFKLNSSIVEPKE-OH; N-terminus and C-terminus assumed), the “N (binding stoichiometry of IKKα: pep)” value [1] is reported as 0.60, the TΔS [1] is reported as -5.56 kcal/mol and the ΔG [1] is reported as -6.77 kcal/mol. For the same molecule, the ΔH [1] was -12.3 kcal/mol.

In the case of `CC[C@H](C)[C@H](NC(=O)[C@H](CC(=O)O)NC(=O)[C@H](CC(=O)O)NC(=O)[C@H](Cc1ccc(O)cc1)NC(=O)[C@H](CC(C)C)NC(=O)[C@H](CO)NC(=O)[C@H](CC(N)=O)NC(=O)[C@H](C)NC(=O)[C@H](CO)NC(=O)[C@H](CO)NC(=O)[C@@H](N)CC(C)C)C(=O)N[C@@H](CCC(=O)O)C(=O)N[C@@H](CS)C(=O)N[C@@H](Cc1ccccc1)C(=O)N[C@@H](CC(C)C)C(=O)N[C@@H](CCSC)C(=O)N[C@@H](CCC(=O)O)C(=O)N[C@@H](CC(C)C)C(=O)N[C@@H](CCC(=O)O)C(=O)N[C@@H](CCC(N)=O)C(=O)N1CCC[C@H]1C(=O)N[C@@H](C)C(=O)O` [IRF7 pep] (H-LSSANSLYDDIECFLMELEQPA-OH; N-terminus and C-terminus assumed), the “N (binding stoichiometry of IKKα: pep)” value [1] is reported as 0.6, the TΔS [1] is reported as -1.2 kcal/mol and the ΔG [1] is reported as -5.5 kcal/mol. It also gave a ΔH [1] of -6.7 kcal/mol.

B1: synthetic IκBα pep wt (residues 297-317 of IκBα) (peptide)
peptide: EFTEDELPYDDCVFGGQRLTL
notes: HPLC purified synthetic peptide; also called IkBα pep wt; P1
With B1 the “N (binding stoichiometry)” value [2] was 0.58, the TΔS [2] was -9.78 kcal/mol and the ΔG [2] was -6 kcal/mol. For the same molecule, the ΔH [2] was -15.8 kcal/mol, the “N (binding stoichiometry)” value [3] was 0.62 and the TΔS [3] was -8.35 kcal/mol. It also gave a ΔG [3] of -6.88 kcal/mol and a ΔH [3] of -15.2 kcal/mol.

In the case of GLDGIIEYDDFKLNSSIVEPKE [synthetic p100 pep], the Kd [3] is reported as 11 µM, the “N (binding stoichiometry)” value [3] is reported as 0.6 and the TΔS [3] is reported as -5.56 kcal/mol. It also gave a ΔG [3] of -6.77 kcal/mol and a ΔH [3] of -12.3 kcal/mol.
